Among the data in article doi:10.1101/2025.11.18.688960 are Kd values, retold here.

Assay in all cases: fluorescence anisotropy
In data set [1] the test system is Protamine 1 AA (P1 S43AT45A) (mouse).
Data set [2] has as its system Protamine 1 EE (P1 S43ET45E) (mouse).
The subject of data set [3] is Protamine 1 WT (P1) (mouse).

Regarding 99 bp fluorescent dsDNA, the equilibrium dissociation constant (Kd) (usually the free concentration of one partner at which half of the binding sites on the other are occupied at equilibrium, for simple one-to-one binding) in data set [1] worked out at 610 nM; in data set [2], 1100 nM; in data set [3], 430 nM.
